Test results: article PMC3398191

T1: Atl1 (MBP fusion cleaved with Factor Xa) (Schizosaccharomyces pombe, UniProt Q9UTN9 1-108)
T1 sequence: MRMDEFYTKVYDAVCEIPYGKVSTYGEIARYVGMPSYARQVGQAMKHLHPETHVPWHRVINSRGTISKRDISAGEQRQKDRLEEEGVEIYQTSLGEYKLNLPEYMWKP

B1: O6-HOEtG 23-mer duplex (dsDNA)
DNA 1: GAACTGCAGCTCCGTGCTGGCCC
DNA 2: GGGCCAGCACGGAGCTGCAGTTC
modifications: O6-hydroxyethylguanine at G6 of strand 1
B2: O6-CMG 23-mer duplex (dsDNA)
DNA 1: GAACTGCAGCTCCGTGCTGGCCC
DNA 2: GGGCCAGCACGGAGCTGCAGTTC
modifications: O6-carboxymethylguanine at G6 of strand 1
B3: O6-BuG 23-mer duplex (dsDNA)
DNA 1: GAACTGCAGCTCCGTGCTGGCCC
DNA 2: GGGCCAGCACGGAGCTGCAGTTC
modifications: O6-n-butylguanine at G6 of strand 1
B4: O6-EtG 23-mer duplex (dsDNA)
DNA 1: GAACTGCAGCTCCGTGCTGGCCC
DNA 2: GGGCCAGCACGGAGCTGCAGTTC
modifications: O6-ethylguanine at G6 of strand 1
B5: O6-BTG 23-mer duplex (dsDNA)
DNA 1: GAACTGCAGCTCCGTGCTGGCCC
DNA 2: GGGCCAGCACGGAGCTGCAGTTC
modifications: O6-(4-bromothenyl)guanine at G6 of strand 1
B6: O6-PrG 23-mer duplex (dsDNA)
DNA 1: GAACTGCAGCTCCGTGCTGGCCC
DNA 2: GGGCCAGCACGGAGCTGCAGTTC
modifications: O6-n-propylguanine at G6 of strand 1
B7: O6-PobG 23-mer duplex (dsDNA)
DNA 1: GAACTGCAGCTCCGTGCTGGCCC
DNA 2: GGGCCAGCACGGAGCTGCAGTTC
modifications: O6-pyridyloxobutylguanine at G6 of strand 1
B8: O6-BnG 23-mer duplex (dsDNA)
DNA 1: GAACTGCAGCTCCGTGCTGGCCC
DNA 2: GGGCCAGCACGGAGCTGCAGTTC
modifications: O6-benzylguanine at G6 of strand 1
B9: O6-MeG 23-mer duplex (dsDNA)
DNA 1: GAACTGCAGCTCCGTGCTGGCCC
DNA 2: GGGCCAGCACGGAGCTGCAGTTC
modifications: O6-methylguanine at G6 of strand 1
B10: G control 23-mer duplex (dsDNA)
DNA 1: GAACTGCAGCTCCGTGCTGGCCC
DNA 2: GGGCCAGCACGGAGCTGCAGTTC

Biological target: T1, Atl1 (MBP fusion cleaved with Factor Xa)
Assay: EMSA

| Binder | binding result |
| --- | --- |
| B1 | binds |
| B2 | binds |
| B3 | binds |
| B4 | binds |
| B5 | binds |
| B6 | binds |
| B7 | binds |
| B8 | binds |
| B9 | binds |
| B10 | no binding |

Biological target: Maltose-binding protein (MBP) (UniProt P0AEX9 27-396)
Assay: EMSA

| Binder | binding result |
| --- | --- |
| B9 | no binding |
